Literature values as cited in patent US20110300070A1, “BIOMOLECULE COMPLEXES AS CONTRAST AGENTS IN POSITRON EMISSION TOMOGRAPHY (PET) BASED METHODS FOR THE ASSESSMENT OF ORGAN FUNCTION” (priority 2008, published 2011).

Tested on: proximal tubular cells
Details: in vivo

In the case of “cytochrome C: heme protein, about 100 amino acids, about 12 kD”, the “time window where the filtered amount of the tracer is still quantitatively retained in the proximal tubular cells” value is listed as “about 5 minutes”.

B1: cystatin C: cysteine protease inhibitor, about 120 amino acids, about 13 kD (protein, UniProt P01034 27-146, looked up)
Cystatin-C: SSPGKPPRLVGGPMDASVEEEGVRRALDFAVGEYNKASNDMYHSRALQVVRARKQIVAGVNYFLDVELGRTTCTKTQPNLDNCPFHDQPHLKRKAFCSFQIYAVPWQGTMTLSKSTCQDA
In the case of B1, the optimal clearance period is given as “less than 5 minutes” and the “time window where the filtered amount of the tracer is still quantitatively retained in the proximal tubular cells” value is given as “about 5 minutes”.
